In patent US20100330076A1 one finds Kd data, which are given here for 2 substances.

One experiment has as its target FcγRI (human) (UniProt P12314). The experiment in a line: BIACore SPR. (In general: SPR reads the build-up and loss of mass on a sensor chip optically.)
The target of the next experiment is FcγRIa (human) (UniProt P12314). The experiment in a line: BIACore SPR.

pKd: −log10 of the molar value.

FcγRI (human), sequence (P12314 16-292): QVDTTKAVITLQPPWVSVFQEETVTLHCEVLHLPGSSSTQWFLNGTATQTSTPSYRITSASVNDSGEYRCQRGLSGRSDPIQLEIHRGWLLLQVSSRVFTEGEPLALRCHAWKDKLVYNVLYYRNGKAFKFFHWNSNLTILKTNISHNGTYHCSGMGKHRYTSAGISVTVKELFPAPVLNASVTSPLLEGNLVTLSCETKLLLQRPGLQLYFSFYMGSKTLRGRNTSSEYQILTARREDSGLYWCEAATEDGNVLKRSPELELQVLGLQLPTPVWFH
FcγRIa (human), sequence (P12314 16-292): as above

Turning to Aglycosylated wild type Trastuzumab, the pKd (in general, the negative decadic logarithm of the Kd, by convention in mol/L) with FcγRI (human) was 6.42.
Substance Aglycosylated wild type trastuzumab had a pKd in the experiment with FcγRIa (human) of 6.42.
